Measurements published in patent publication CN116789813A.

Tests used:
[1] = molecular target: 野生型金黄色葡萄球菌α-溶血素(wtHla) (Staphylococcus aureus (strain MRSA 252)); assay: cell-based or functional assay
[2] = molecular target: 野生型金黄色葡萄球菌α-溶血素(wtHla) (Staphylococcus aureus (strain MRSA 252)); assay: ELISA, wtHla coated at 2μg/mL, anti-human IgG Fab-HRP detection

B1: 全人源Hla单克隆抗体Hla-38 (antibody, V domains shown)
VH: QVQLLESGGGVVQPGRSLRLSCIVSGFDLNSFAMHWVRQPPGKGLEWVAVIWHDGSERFYAASVKGRFTISRDTSRNTLFLQMNSLRVEDTAVYYCAKSGDYYENSGYFGSWGQGALVTVSS
VL: ELVLTQSPATLSVSPGERATLSCRASQSVGNDLAWYQQKPGQAPRLLIYGASTRATGIPARFSGSGFGTEFTLTISSLQSEDFAVYYCQQYNNWWTFGQGTKVDIK
Question: B1 was tested. Which 保护率 (mice injected i.p. with 15μg wtHla pre-incubated with 2.5μg antibody) [1] did it give?
Answer: < 30%

Question: And the 保护率 (mice injected i.p. with 15μg wtHla pre-incubated with 5μg antibody) [1]?
Answer: < 30%

Question: What about the 保护率 (mice injected i.p. with 15μg wtHla pre-incubated with 10μg antibody) [1] of the same binder?
Answer: 50%

Question: And the 小鼠生存率 (mice injected i.p. with 15μg wtHla pre-incubated with 20μg antibody) [1]?
Answer: > 80%

Question: And the EC50 [2]?
Answer: 0.33 µg/mL
